{"source": "patent US20140287029A1", "about": "(US Dept. of Health and Human Services, published 2014)", "binders": {"B1": {"name": "NGEP peptide P143 (peptide)", "peptide": "FLDNIRAAGL", "notes": "Synthetic peptide, purity >95%; also called P143 (5)"}, "B2": {"name": "NGEP peptide P258 (L) (peptide)", "peptide": "ILFEILAKT", "notes": "Synthetic peptide, purity >95%; positions counted on the NGEP long form (L)"}, "B3": {"name": "MUC-1 (P1240) peptide (peptide)", "peptide": "SLSYTNPAV", "notes": "Synthetic control peptide, purity >95%; also called positive control peptide"}, "B4": {"name": "NGEP peptide P113 (S) (peptide)", "peptide": "LVWEEDLKL", "notes": "Synthetic peptide, purity >95%; positions counted on the NGEP short form (S)"}, "B5": {"name": "NGEP peptide P703 (L) (peptide)", "peptide": "GLFDEYLEMV", "notes": "Synthetic peptide, purity >95%; positions counted on the NGEP long form (L); also called NGEP-P703"}, "B6": {"name": "NGEP peptide P215 (L) (peptide)", "peptide": "VLLEVVPDV", "notes": "as for B2"}, "B7": {"name": "NGEP peptide P846 (L) (peptide)", "peptide": "LLAIRLWAV", "notes": "as for B2"}, "B8": {"name": "NGEP peptide P10 (S) (peptide)", "peptide": "GLGGPPLPTL", "notes": "as for B4"}, "B9": {"name": "NGEP peptide P170 (L) (peptide)", "peptide": "ALLSASWAV", "notes": "as for B2"}, "B10": {"name": "NGEP peptide P855 (L) (peptide)", "peptide": "IVFEHVVFSV", "notes": "as for B2"}, "B11": {"name": "NGEP peptide P356 (L) (peptide)", "peptide": "WLLPAAVVGT", "notes": "as for B2"}}, "data": [{"target": "T1, HLA-A2 molecules on T2 cells (human)", "T1 construct": "whole, on cells; MHC class I molecule on the surface of T2 cells", "test": "T2 cell-binding assay, flow cytometry of HLA-A2 on T2 cells, peptide 25 µg/mL", "excerpt": "The T2 binding values are expressed in mean fluorescence intensity. The values in parentheses are fold increases as compared with the negative control (CAP-7 peptide).", "units": {"T2 Binding (mean fluorescence intensity)": "MFI", "fold increase compared with the negative control (CAP-7 peptide)": "fold"}, "values": [{"binder": "B1", "T2 Binding (mean fluorescence intensity)": 203, "fold increase compared with the negative control (CAP-7 peptide)": 2.3}, {"binder": "B2", "T2 Binding (mean fluorescence intensity)": 280, "fold increase compared with the negative control (CAP-7 peptide)": 3.1}, {"binder": "B3", "T2 Binding (mean fluorescence intensity)": 452, "fold increase compared with the negative control (CAP-7 peptide)": 5.1}, {"binder": "B4", "T2 Binding (mean fluorescence intensity)": 367, "fold increase compared with the negative control (CAP-7 peptide)": 4.1}, {"binder": "B5", "T2 Binding (mean fluorescence intensity)": 565, "fold increase compared with the negative control (CAP-7 peptide)": 6.4}, {"binder": "B6", "T2 Binding (mean fluorescence intensity)": 464, "fold increase compared with the negative control (CAP-7 peptide)": 5.2}, {"binder": "B7", "T2 Binding (mean fluorescence intensity)": 126, "fold increase compared with the negative control (CAP-7 peptide)": 1.4}, {"binder": "B8", "T2 Binding (mean fluorescence intensity)": 212, "fold increase compared with the negative control (CAP-7 peptide)": 2.4}, {"binder": "B9", "T2 Binding (mean fluorescence intensity)": 185, "fold increase compared with the negative control (CAP-7 peptide)": 2.1}, {"binder": "B10", "T2 Binding (mean fluorescence intensity)": 203, "fold increase compared with the negative control (CAP-7 peptide)": 2.3}, {"binder": "B11", "T2 Binding (mean fluorescence intensity)": 354, "fold increase compared with the negative control (CAP-7 peptide)": 4}]}]}
